Results as given in PMC6676893 (Biochemistry, 2019).

What was measured:
SEC = molecular target: the molecule itself; assay: SEC
crystal structure = molecular target: the molecule itself; assay: crystal structure

Row | Protein | stoichiometry N (SEC) | binding result (crystal structure)
1 | Escherichia coli SufS R92A (enzyme, E. coli, persulfide on C364 (as isolated; crystallographic occupancy 0.84); PLP, internal aldimine with K226) MIFSVDKVRADFPVLSREVNGLPLAYLDSAASAQKPSQVIDAEAEFYRHGYAAVHRGIHTLSAQATEKMENVRKRASLFINARSAEELVFVAGTTEGINLVANSWGNSNVRAGDNIIISQMEHHANIVPWQMLCARVGAELRVIPLNPDGTLQLETLPTLFDEKTRLLAITHVSNVLGTENPLAEMITLAHQHGAKVLVDGAQAVMHHPVDVQALDCDFYVFSGHKLYGPTGIGILYVKEALLQEMPPWEGGGSMIATVSLSEGTTWTKAPWRFEAGTPNTGGIIGLGAALEYVSALGLNNIAEYEQNLMHYALSQLESVPDLTLYGPQNRLGVIAFNLGKHHAYDVGSFLDNYGIAVRTGHHCAMPLMAYYNVPAMCRASLAMYNTHEEVDRLVTGLQRIHRLLG | 2 | 
2 | Escherichia coli SufS E96A (enzyme, E. coli, persulfide on C364 (as isolated; crystallographic occupancy 0.80); PLP, internal aldimine with K226) MIFSVDKVRADFPVLSREVNGLPLAYLDSAASAQKPSQVIDAEAEFYRHGYAAVHRGIHTLSAQATEKMENVRKRASLFINARSAEELVFVRGTTAGINLVANSWGNSNVRAGDNIIISQMEHHANIVPWQMLCARVGAELRVIPLNPDGTLQLETLPTLFDEKTRLLAITHVSNVLGTENPLAEMITLAHQHGAKVLVDGAQAVMHHPVDVQALDCDFYVFSGHKLYGPTGIGILYVKEALLQEMPPWEGGGSMIATVSLSEGTTWTKAPWRFEAGTPNTGGIIGLGAALEYVSALGLNNIAEYEQNLMHYALSQLESVPDLTLYGPQNRLGVIAFNLGKHHAYDVGSFLDNYGIAVRTGHHCAMPLMAYYNVPAMCRASLAMYNTHEEVDRLVTGLQRIHRLLG | 2 | 
3 | Escherichia coli SufS H55A (enzyme, E. coli, persulfide on C364 (as isolated; crystallographic occupancy 0.66); PLP, internal aldimine with K226) MIFSVDKVRADFPVLSREVNGLPLAYLDSAASAQKPSQVIDAEAEFYRHGYAAVARGIHTLSAQATEKMENVRKRASLFINARSAEELVFVRGTTEGINLVANSWGNSNVRAGDNIIISQMEHHANIVPWQMLCARVGAELRVIPLNPDGTLQLETLPTLFDEKTRLLAITHVSNVLGTENPLAEMITLAHQHGAKVLVDGAQAVMHHPVDVQALDCDFYVFSGHKLYGPTGIGILYVKEALLQEMPPWEGGGSMIATVSLSEGTTWTKAPWRFEAGTPNTGGIIGLGAALEYVSALGLNNIAEYEQNLMHYALSQLESVPDLTLYGPQNRLGVIAFNLGKHHAYDVGSFLDNYGIAVRTGHHCAMPLMAYYNVPAMCRASLAMYNTHEEVDRLVTGLQRIHRLLG |  | binds
4 | Escherichia coli SufS E250A (enzyme, E. coli, persulfide on C364 (as isolated; crystallographic occupancy 0.63); PLP, internal aldimine with K226) MIFSVDKVRADFPVLSREVNGLPLAYLDSAASAQKPSQVIDAEAEFYRHGYAAVHRGIHTLSAQATEKMENVRKRASLFINARSAEELVFVRGTTEGINLVANSWGNSNVRAGDNIIISQMEHHANIVPWQMLCARVGAELRVIPLNPDGTLQLETLPTLFDEKTRLLAITHVSNVLGTENPLAEMITLAHQHGAKVLVDGAQAVMHHPVDVQALDCDFYVFSGHKLYGPTGIGILYVKEALLQEMPPWAGGGSMIATVSLSEGTTWTKAPWRFEAGTPNTGGIIGLGAALEYVSALGLNNIAEYEQNLMHYALSQLESVPDLTLYGPQNRLGVIAFNLGKHHAYDVGSFLDNYGIAVRTGHHCAMPLMAYYNVPAMCRASLAMYNTHEEVDRLVTGLQRIHRLLG | 2 | 
